In paper PMC8985508:

Biological target: trastuzumab
Experiment: fluorescence polarisation

Kd	IC50	Substance
14 nM	–	Fc-III labeled with fluorescein (Fc-III-FAM) (peptide)
–	58 nM	Fc-III peptide (wild-type Fc-III)
–	91 nM	NH2-PEG20-Fc-III (peptide)
